{"source": "patent US20230303654A1", "about": "(CITY OF HOPE, published 2023)", "data": [{"biological_target": "purified 6× His-tagged SARS-CoV-2 spike protein (ELISA coat, Example 12) (SARS-CoV-2, UniProt P0DTC2 14-1213)", "units": {"EC50": "nM"}, "values": [{"binder": "ab14 (scFv, V domains shown) VH: QVQLQQSGPGLVKPSQTLSLTCAISGDSVSSNSAAWNWIRQSPARGLEWLGRTYYRSRWYNDYAISMKSRITINPDTSKNQFSLQLESVTPEDTAVYYCAREIRGFDYWGQGTLVTVSS VL: QSVLTQPPSASGSPGQSVTISCTGTSSDVGAYNFVSWYQHHPGKAPKLIIYDFNKRPSGVPDRFSGSKSGNTASLTVSGLQADDEADYYCSSYAGSNNFDVVFGGGTKLTVL", "EC50": 154}, {"binder": "ab19 (scFv, V domains shown) VH: EVQLVESGAEVKKPGESLKISCKGSGYSFTSYWIGWVRQMPGKGLEWMGIIYPGDSDTRYSPSFQGQVTISADKSISTAYLQWSSLKASDTAMYYCARRGDLDAFDIWGQGTMVTVSS VL: QPGLTQPPAASGTPGQRVTVSCSGASANIGSNAVSWFKQFPETAPRLLISGNTHRPSGVPDRVSGSKSGTSASLTISGLQSDDEADYYCAAWDDSLNGYVFGSGTKVTVL", "EC50": 24.2}, {"binder": "ab23 (scFv, V domains shown) VH: EVQLVQSGAEVKKPGSSVKVSCRSSGGTFSTYGITWVRQAPGQGLEWMGRIIPSLGIPNYAQKFQGRVTITADTSVSTAWMELSSLESDDTAIYYCARENIDLATNDFWGQGTLVTVSS VL: QSALTQPPSASGSPGQSVTISCTGTSRDIGAYGYVSWYQQVPGKAPKLIIYEVRNRPSGVSSRFSGSKSGNTASLTISGLQAEDEADYYCSSYTSSSTLDVVFGGGTKLTVL", "EC50": 116}, {"binder": "ab31 (scFv, V domains shown) VH: EVQLVESGAEVKKPGESLKISCKGSGYTFTRYWIGWVRQMPGKGLEWMGIIYPGDLDTRYSPSFQGHVTISADKSISTAYLQWNSLKASDTAMYYCARLPQYCYKGVCKRWFDPWGQGTLVTVSS VL: EIVLTQSPSSVSASVGDRVTITCRASQGIRSWLAWYQQKPGKAPKLLIYAASSLQSGVPSRFSGSGSGTDFTLTISSLQPEDFATYYCQQGHSVPYTFGQGTNLEIK", "EC50": 40.4}, {"binder": "ab44 (scFv, V domains shown) VH: EVQLVESGAEVKKPGESLKISCKGSGYTFTRYWIGWVRQMPGKGLEWMGIIYPGDLDVRYSPSFQGHVTISADKSISTAYLQWNSLKASDTAMYYCARLPQYCREGKCHRWFDPWGQGTLVTVSS VL: EIVLTQSPSSVSASVGDRVTITCRASQGIRNWLAWYQQKPGKAPKLLIYAASSLQSGVPSRFSGSGSGTDFTLTISSLQPEDFATYYCQQGDQDPLTFGQGTNLEIK", "EC50": 28.2}, {"binder": "ab43 (scFv, V domains shown) VH: EVQLVESGAEVKKPGESLKISCKGSGYTFTRYWIGWVRQMPGKGLEWMGIIYPGDSDTRYSPSFQGHVTISADKSISTAYLQWNSLKASDTAMYYCARLPQYCSAGVCFRWFDPWGQGTLVTVSS VL: EIVLTQSPSSVSASVGDRVTITCRASQGISSWLAWYQQKPGKAPKLLIYAASSLQSGVPSRFSGSGSGTDFTLTISSLQPEDFATYYCQQGHSFPYTFGQGTNLEIK", "EC50": 216}, {"binder": "ab35 (scFv, V domains shown) VH: EVQLVESGAEVKKPGESLKISCKGSGYTFTRYWIGWVRQMPGKGLEWMGIIYPGDADTRYSPSFQGHVTISADKSISTAYLQWNSLKASDTAMYYCARLPQYCSRGVCQRWFDPWGQGTLVTVSS VL: EIVLTQSPSSVSASVGDRVTITCRASQGISSWLAWYQQKPGKAPKLLIYAASSLQSGVPSRFSGSGSGTDFTLTISSLQPEDFATYYCQQGNQFPYTFGQGTNLEIK", "EC50": 39}, {"binder": "ab33 (scFv, V domains shown) VH: EVQLVESGAEVKKPGESLKISCKGSGYTFTRYWIGWVRQMPGKGLEWMGIIYPGDSDTRYSPSFQGHVTISADKSISTAYLQWNSLKASDTAMYYCARLPQYCRAGKCKRWFDPWGQGTLVTVSS VL: EIVLTQSPSSVSASVGDRVTITCRASQGISSWLAWYQQKPGKAPKLLIYAASSLQSGVPSRFSGSGSGTDFTLTISSLQPEDFATYYCQQGNQYPYTFGQGTNLEIK", "EC50": 33.4}, {"binder": "ab45 (scFv, V domains shown) VH: EVQLVESGAEVKKPGESLKISCKGSGYTFTRYWIGWVRQMPGKGLEWMGIIYPGDSDTRYSPSFQGHVTISADKSISTAYLQWNSLKASDTAMYYCARLPQYCSSGVCQRWFDPWGQGTLVTVSS VL: EIVLTQSPSSVSASVGDRVTITCRASQGISSWLAWYQQKPGKAPKLLIYAASSLQSGVPSRFSGSGSGTDFTLTISSLQPEDFATYYCQQGNQFPYTFGQGTNLEIK", "EC50": 37.3}, {"binder": "ab32 (scFv, V domains shown) VH: EVQLVESGAEVKKPGESLKISCKGSGYTFTRYWIGWVRQMPGKGLEWMGIIYPGDSETRYSPSFQGHVTISADKSISTAYLQWNSLKASDTAMYYCARLPQYCRRGVCKRWFDPWGQGTLVTVSS VL: EIVLTQSPSSVSASVGDRVTITCRASQGISSWLAWYQQKPGKAPKLLIYAASSLQSGVPSRFSGSGSGTDFTLTISSLQPEDFATYYCQQGNQLPYTFGQGTNLEIK", "EC50": 13.1}, {"binder": "ab50 (scFv, V domains shown) VH: EVQLVESGAEVKKPGESLKISCKGSGYTFTRYWIGWVRQMPGKGLEWMGIIYPGDADVRYSPSFQGHVTISADKSISTAYLQWNSLKASDTAMYYCARLPQYCSSGSCFRWFDPWGQGTLVTVSS VL: EIVLTQSPSSVSASVGDRVTITCRASQGISSWLAWYQQKPGKAPKLLIYAASSLQSGVPSRFSGSGSGTDFTLTISSLQPEDFATYYCQQGYSTPYTFGQGTNLEIK", "EC50": 165}, {"binder": "ab47 (scFv, V domains shown) VH: EVQLVESGAEVKKPGESLKISCKGSGYTFTRYWIGWVRQMPGKGLEWMGIIYPGDSDTRYSPSFQGHVTISADKSISTAYLQWNSLKASDTAMYYCARLPQYCQNGVCHRWFDPWGQGTLVTVSS VL: EIVLTQSPSSVSASVGDRVTITCRASQGIRNWLAWYQQKPGKAPKLLIYAASSLQSGVPSRFSGSGSGTDFTLTISSLQPEDFATYYCQQGDQDPLTFGQGTNLEIK", "EC50": 81.7}, {"binder": "ab40 (scFv, V domains shown) VH: EVQLVESGAEVKKPGESLKISCKGSGYTFTRYWIGWVRQMPGKGLEWMGIIYPGDSETRYSPSFQGHVTISADKSISTAYLQWNSLKASDTAMYYCARLPQYCRSGVCQRWFDPWGQGTLVTVSS VL: EIVLTQSPSSVSASVGDRVTITCRASQGISSWLAWYQQKPGKAPKLLIYAASSLQSGVPSRFSGSGSGTDFTLTISSLQPEDFATYYCQQGNQVPYTFGQGTNLEIK", "EC50": 40}, {"binder": "ab42 (scFv, V domains shown) VH: EVQLVESGAEVKKPGESLKISCKGSGYTFTRYWIGWVRQMPGKGLEWMGIIYPGDSDTRYSPSFQGHVTISADKSISTAYLQWNSLKASDTAMYYCARLPQYCQSGVCKRWFDPWGQGTLVTVSS VL: EIVLTQSPSSVSASVGDRVTITCRASQGIRSWLAWYQQKPGKAPKLLIYAASSLQSGVPSRFSGSGSGTDFTLTISSLQPEDFATYYCQQGDQYPLTFGQGTNLEIK", "EC50": 721}, {"binder": "ab46 (scFv, V domains shown) VH: EVQLVESGAEVKKPGESLKISCKGSGYTFTRYWIGWVRQMPGKGLEWMGIIYPGDSDTRYSPSFQGHVTISADKSISTAYLQWNSLKASDTAMYYCARLPQYCSSGVCHRWFDPWGQGTLVTVSS VL: EIVLTQSPSSVSASVGDRVTITCRASQGISSWLAWYQQKPGKAPKLLIYAASSLQSGVPSRFSGSGSGTDFTLTISSLQPEDFATYYCQQGHSFPYTFGQGTNLEIK", "EC50": 106}, {"binder": "ab49 (scFv, V domains shown) VH: EVQLVESGAEVKKPGESLKISCKGSGYTFTRYWIGWVRQMPGKGLEWMGIIYPGDSDTRYSPSFQGHVTISADKSISTAYLQWNSLKASDTAMYYCARLPQYCENGICKRWFDPWGQGTLVTVSS VL: EIVLTQSPSSVSASVGDRVTITCRASQGIRSWLAWYQQKPGKAPKLLIYAASSLQSGVPSRFSGSGSGTDFTLTISSLQPEDFATYYCQQGDQYPLTFGQGTNLEIK", "EC50": 234}, {"binder": "ab34 (scFv, V domains shown) VH: EVQLVESGAEVKKPGESLKISCKGSGYTFTRYWIGWVRQMPGKGLEWMGIIYPGDADVRYSPSFQGHVTISADKSISTAYLQWNSLKASDTAMYYCARLPQYCRKGVCKRWFDPWGQGTLVTVSS VL: EIVLTQSPSSVSASVGDRVTITCRASQGIRSWLAWYQQKPGKAPKLLIYAASSLQSGVPSRFSGSGSGTDFTLTISSLQPEDFATYYCQQGHSTPYTFGQGTNLEIK", "EC50": 22.7}, {"binder": "ab41 (scFv, V domains shown) VH: EVQLVESGAEVKKPGESLKISCKGSGYTFTRYWIGWVRQMPGKGLEWMGIIYPGDNDVRYSPSFQGHVTISADKSISTAYLQWNSLKASDTAMYYCARLPQYCSAGVCFRWFDPWGQGTLVTVSS VL: EIVLTQSPSSVSASVGDRVTITCRASQGISNWLAWYQQKPGKAPKLLIYAASSLQSGVPSRFSGSGSGTDFTLTISSLQPEDFATYYCQQGYSYPYTFGQGTNLEIK", "EC50": 34.1}, {"binder": "ab48 (scFv, V domains shown) VH: EVQLVESGAEVKKPGESLKISCKGSGYTFTRYWIGWVRQMPGKGLEWMGIIYPGDNDVRYSPSFQGHVTISADKSISTAYLQWNSLKASDTAMYYCARLPQYCDKGICKRWFDPWGQGTLVTVSS VL: EIVLTQSPSSVSASVGDRVTITCRASQGISSWLAWYQQKPGKAPKLLIYAASSLQSGVPSRFSGSGSGTDFTLTISSLQPEDFATYYCQQGDQLPYTFGQGTNLEIK", "EC50": 1560}]}, {"biological_target": "purified 6× His-tagged SARS-CoV-2 spike protein (ELISA coat, Example 12) (SARS-CoV-2, UniProt P0DTC2 14-1213)", "remark": "another data set of the same source", "units": {"EC50": "nM"}, "values": [{"binder": "Anti-spike RBD Ab36 scFv (scFv) scFv: ELVMTQSPSSVSASVGDRVTITCRASQAIGSWLAWYQQKPGKAPKLLISSASSLQSGVPSRFSGSGSGTDFTLTISSLQPEDFATYYCQQLDSYPVTFGPGTKVDIKGGSSRSSEVQLLESGGGLIQPGGSLRLSCAASGLTVSSNYMSWVRQAPGKGLEWVSVIYSGGSTYYADSVKGRFTISRDNSKNTLYLQMNSLRAEDTAVYYCARAIDSGAFDIWGQGTMVTVSSGSASAPTL", "EC50": 31.2}, {"binder": "Anti-spike RBD Ab38 scFv (scFv) scFv: ELQMTQSPSSLSASVGDRVTITCRASQSISSYLNWYQQKPGKAPKLLIYAASSLQSGVPSRFSGSGSGTDFTLTISSLQPEDFATYYCQQANSFPLTFGGGTKVEIKGGSSRSSQVQLVQSGAEVKKPGSSVKVSCKASGGTLSENGFSWVRQAPGQGLEWMGRIVPMFDISNYAERFQDRVTITADGSTNTAYMELRSLRLEDTAVYYCARDAVATSPGVYQHYGMDVWGQGTTVTVSSASTKGPSV", "EC50": 10.6}]}]}
